B1: G2(1B06) Fab (Fab, V domains shown)
VH: QVQLVQSGAEVKKPGASVKVSCKASGGTFSNYILSWVRQAPGQGLEWMGWINPDSGGTNYAQKFQGRVTMTRDTSTSTVYMELSSLRSEDTAVYYCARGSYGMDVWGQGTTVTVSS
VL: DIQMTQSPSSLSASVGDRVTITCRASQSISRWLAWYQQKPGKAPKLLIYAASSLQSGVPSRFSGSGSGTDFTLTISSLQPEDFATYYCQQSYSTPYTFGQGTKLEIK
notes: Fab
B2: G2(2A03) Fab (Fab, V domains shown)
VH: QVQLVQSGAEVKKPGASVKVSCKASGYTFTSYTVNWVRQAPGQGLEWMGWINPNSGGTKYAQNFQGRVTMTRDTSTSTVYMELSSLRSEDTAVYYCARGGGGALDYWGQGTLVTVSS
VL: DIQMTQSPSSLSASVGDRVTITCRASQSISSWLAWYQQKPGKAPKLLIYAASTLQSGVPSRFSGSGSGTDFTLTISSLQPEDFATYYCQQSYLPPYSFGQGTKLEIK
notes: Fab
B3: G2(1B12) Fab (Fab, V domains shown)
VH: QVQLVQSGAEVKKPGASVKVSCKASGYTFTSYGITWVRQAPGQGLEWMGWINPNSGGTNYAQKFQGRVTMTRDTSTSTVYMELSSLRSEDTAVYYCARDYGDLDYWGQGTLVTVSS
VL: DIQMTQSPSSLSASVGDRVTITCRASQNIGNWLAWYQQKPGKAPKLLIYAASTLQTGVPSRFSGSGSGTDFTLTISSLQPEDFATYYCQQSYSAPYSFGQGTKLEIK
notes: Fab
B4: G2(2A11) Fab (Fab, V domains shown)
VH: EVQLLESGAEVKKPGASVKVSCKASGYTFTTYDLAWVRQAPGQGLEWMGWINPNSGGTNYAQKFQGRVTMTRDTSTSTVYMELSSLRSEDTAVYYCARANWLDYWGQGTLVTVSS
VL: DIQMTQSPSSLSASVGDRVTITCRASQDISRWLAWYQQKPGKAPKLLIYAASRLQAGVPSRFSGSGSGTDFTLTISSLQPEDFATYYCQQSYSTPYSFGQGTKLEIK
notes: Fab
B5: G2(1H01) Fab (Fab, V domains shown)
VH: QVQLVQSGAEVKKPGASVKVSCKASGYTFTRYTINWVRQAPGQGLEWMGWINPNSGGTNYAQKFQGRVTMTRDTSTSTVYMELSSLRSEDTAVYYCARDFVGYDDWGQGTLVTVSS
VL: DIQMTQSPSSLSASVGDRVTITCRASQSVGNWLAWYQQKPGKAPKLLIYGASSLQTGVPSRFSGSGSGTDFTLTISSLQPEDFATYYCQQSYSAPYTFGQGTKVEIK
notes: Fab
B6: G2(1H11) Fab (Fab, V domains shown)
VH: QVQLVQSGAEVKKPGASVKVSCKASGYTFTNYYMHWVRQAPGQGLEWMGMINPSGGGTSYAQKFQGRVTMTRDTSTSTVYMELSSLRSEDTAVYYCARGNPWELRLDYWGQGTLVTVSS
VL: DIQMTQSPSSLSASVGDRVTITCQASQDISNYLNWYQQKPGKAPKLLIYAASSLQSGVPSRFSGSGSGTDFTLTISSLQPEDFATYYCQQYYSYPFTFGPGTKVDIK
notes: Fab
B7: G2(1D06) scFv (scFv, V domains shown)
VH: QVQLVQSGAEVKKPGSSVKVSCKASGYTFTSQYMHWVRQAPGQGLEWMGRIIPLLGIVNYAQKFQGRVTITADESTSTAYMELSSLRSEDTAVYYCARDKNYYGMDVWGQGTTVTVSS
VL: EIVMTQSPATLSVSPGERATLSCRASQSVSRNLAWYQQKPGQAPRLLIYGASTRATGIPARFSGSGSGTEFTLTISSLQSEDFAVYYCQHYGYSPVTFGQGTKLEIK
B8: G8(1A03) scFv (scFv, V domains shown)
VH: QVQLVQSGAEVKKPGASVKVSCKASGGTFSRSAITWVRQAPGQGLEWMGWINPNSGATNYAQKFQGRVTMTRDTSTSTVYMELSSLRSEDTAVYYCARDDYGDYVAYFQHWGQGTLVTVSS
VL: DIQMTQSPSSLSASVGDRVTITCRASQSITSYLNWYQQKPGKAPKLLIYDASNLETGVPSRFSGSGSGTDFTLTISSLQPEDFATYYCQQNYNSVTFGQGTKLEIK
B9: G8(1A04) scFv (scFv, V domains shown)
VH: QVQLVQSGAEVKKPGASVKVSCKASGYPFIGQYLHWVRQAPGQGLEWMGIINPSGDSATYAQKFQGRVTMTRDTSTSTVYMELSSLRSEDTAVYYCARDLSYYYGMDVWGQGTTVTVSS
VL: DIQMTQSPSSLSASVGDRVTITCWASQGISSYLAWYQQKPGKAPKLLIYAASSLQSGVPSRFSGSGSGTDFTLTISSLQPEDFATYYCQQSYNTPWTFGPGTKVDIK
B10: G8(1A06) scFv (scFv, V domains shown)
VH: QVQLVQSGAEVKKPGASVKVSCKASGYTFTNYYMHWVRQAPGQGLEWMGWMNPIGGGTGYAQKFQGRVTMTRDTSTSTVYMELSSLRSEDTAVYYCARVYDFWSVLSGFDIWGQGTLVTVSS
VL: DIQMTQSPSSLSASVGDRVTITCRASQAISNSLAWYQQKPGKAPKLLIYAASTLQSGVPSRFSGSGSGTDFTLTISSLQPEDFATYYCGQSYSTPPTFGQGTKLEIK
B11: G8(1B03) scFv (scFv, V domains shown)
VH: EVQLLESGGGLVQPGGSLRLSCAASGFTFSDYYMSWVRQAPGKGLEWVSGINWNGGSTGYADSVKGRFTISRDNSKNTLYLQMNSLRAEDTAVYYCARVEQGYDIYYYYYMDVWGKGTTVTVSS
VL: DIQMTQSPSSLSASVGDRVTITCRASQSISSYLNWYQQKPGKAPKLLIYKASSLESGVPSRFSGSGSGTDFTLTISSLQPEDFATYYCQQSYSAPYTFGPGTKVDIK
B12: G8(1C11) scFv (scFv, V domains shown)
VH: QVQLVQSGAEVKKPGASVKVSCKASGGTLSSYPINWVRQAPGQGLEWMGWISTYSGHADYAQKLQGRVTMTRDTSTSTVYMELSSLRSEDTAVYYCARSYDYGDYLNFDYWGQGTLVTVSS
VL: DIQMTQSPSSLSASVGDRVTITCQASQDISNYLNWYQQKPGKAPKLLIYAASSLQSGVPSRFSGSGSGTDFTLTISSLQPEDFATYYCQQSYSIPPTFGGGTKVDIK
B13: G8(1D02) scFv (scFv, V domains shown)
VH: EVQLLESGGGLVQPGGSLRLSCAASGFTFSSYWMSWVRQAPGKGLEWVSSISGRGDNTYYADSVKGRFTISRDNSKNTLYLQMNSLRAEDTAVYYCARASGSGYYYYYGMDVWGQGTTVTVSS
VL: DIQMTQSPSSLSASVGDRVTITCQASQDISNYLNWYQQKPGKAPKLLIYAASSLQSGVPSRFSGSGSGTDFTLTISSLQPEDFATYYCQQSYSAPYTFGGGTKVEIK
B14: G8(1H08) scFv (scFv, V domains shown)
VH: QVQLVQSGAEVKKPGASVKVSCKASGYTFGNYFMHWVRQAPGQGLEWMGMVNPSGGSETFAQKFQGRVTMTRDTSTSTVYMELSSLRSEDTAVYYCAASTWIQPFDYWGQGTLVTVSS
VL: DIQMTQSPSSLSASVGDRVTITCRASQGINSYLAWYQQKPGKAPKLLIYDASNLETGVPSRFSGSGSGTDFTLTISSLQPEDFATYYCQQHNSYPPTFGQGTKLEIK
notes: also called G8-P1H08
B15: G8(2B05) scFv (scFv, V domains shown)
VH: EVQLLESGGGLVQPGGSLRLSCAASGFDFSIYSMNWVRQAPGKGLEWVSAISGSGGSTYYADSVKGRFTISRDNSKNTLYLQMNSLRAEDTAVYYCASNGNYYGSGSYYNYWGQGTLVTVSS
VL: DIQMTQSPSSLSASVGDRVTITCRASQSISRWLAWYQQKPGKAPKLLIYAASSLQSGVPSRFSGSGSGTDFTLTISSLQPEDFATYYCQQYSTYPITIGQGTKVEIK

How the values were obtained:
[1] = target: T1, HLA-A*01:01_… (HLA-PEPTIDE target G2), recombinant biotinylated complex (human, enzymatically biotinylated (BirA)); test: BLI, pHLA on sensor, Fab titrated, 1:1 model
T1 construct: also called G2-pHLA

[2] = target: T1, HLA-A*01:01_… (HLA-PEPTIDE target G2), …; test: phage panning, scFv ELISA;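 note: scFv binders from three to four bead panning rounds, tested as PPEs by ELISA on streptavidin plates carrying peptide-HLA complex (2 µg/ml), detected via anti-V5 and HRP anti-mouse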
Protocol: Phage library screening was carried out according to the overall screening design described above. Three to four rounds of bead-based panning were performed to identify scFv binders to each peptide-HLA complex. For each round of panning, an aliquot of starting phage was set aside for input titering and the remaining phage was depleted three times against Dynabead M-280 streptavidin beads (Life Technologies) followed by a depletion against Streptavidin beads pre-bound with 100 μmoles of pooled negative peptide-HLA complexes. For the first round of panning, 100 μmoles of peptide-HLA complex bound to streptavidin beads was incubated with depleted phage for 2 hours at room temperature with rotation. Three five-minute washes with 0.5% BSA in 1×PBST (PBS+0.05% Tween-20) followed by three five-minute washes with 0.5% BSA in 1×PBS were utilized to remove any unbound phage to the peptide-HLA complex bound beads. To elute the bound phage from the washed beads, 1 ml 0.1M TEA was added and incubated for 10 minutes at room temperature with rotation. The eluted phage was collected from the beads and neutralized with 0.5 ml 1M Tris-HCl pH 7.5. The neutralized phage was then used to infect log growth TG-1 cells (OD₆₀₀=0.5) and after an hour of infection at 37° C., cells were plated onto 2YT media with 100 μg/ml carbenicillin and 2% glucose (2YTCG) agar plates for output titer and bacterial growth for subsequent panning rounds.
96-well and/or 384-well streptavidin coated plates (Pierce) were coated with 2 μg/ml peptide-HLA complex in HLA buffer and incubated overnight at 4° C. Plates were washed three times between each step with PBST (PBS+0.05%). The antigen coated plates were blocked with 3% BSA in PBS (blocking buffer) for 1 hour at room temperature. After washing, scFv PPEs were added to the plates and incubated at room temperature for 1 hour. Following washing, mouse anti-v5 antibody (Invitrogen) in blocking buffer was added to detect scFv and incubated at room temperature for 1 hour. After washing, HRP-goat anti-mouse antibody (Jackson ImmunoResearch) was added and incubated at room temperature for 1 hour.

[3] = target: HLA-A*02:01_… (HLA-PEPTIDE target G8), recombinant complex (human, enzymatically biotinylated (BirA) for screening and functional assays); test: scFv PPE ELISA

| Binder | Kd [1] [nM] | koff [1] [s⁻¹] | kon [1] [M⁻¹ s⁻¹] | binding result [2] | fold selective binding to target pHLA over minipool of negative control pHLAs [3] [fold] |
| --- | --- | --- | --- | --- | --- |
| B1 | 44.4 | 0.0323 | 1.06e+06 |  |  |
| B2 | 109 | 0.036 | 332000 |  |  |
| B3 | 22.8 | 0.00728 | 366000 |  |  |
| B4 | 28.1 | 0.0172 | 633000 |  |  |
| B5 | 15.5 | 0.0148 | 952000 |  |  |
| B6 | 49.9 | 0.028 | 581000 |  |  |
| B7 |  |  |  | binds |  |
| B8 |  |  |  |  | ≥ 3 |
| B9 |  |  |  |  | ≥ 3 |
| B10 |  |  |  |  | ≥ 3 |
| B11 |  |  |  |  | ≥ 3 |
| B12 |  |  |  |  | ≥ 3 |
| B13 |  |  |  |  | ≥ 3 |
| B14 |  |  |  |  | ≥ 3 |
| B15 |  |  |  |  | ≥ 3 |

Source: patent publication US20240059797A1 (GRITSTONE BIO, published 2024)
